Experimental findings from article PMC4997346 (2016) are described below.

No end group written: not given here.

Experiment [1] has as its target T1, FVIIa [E] (Homo sapiens, UniProt P08709).
T1 chain 1: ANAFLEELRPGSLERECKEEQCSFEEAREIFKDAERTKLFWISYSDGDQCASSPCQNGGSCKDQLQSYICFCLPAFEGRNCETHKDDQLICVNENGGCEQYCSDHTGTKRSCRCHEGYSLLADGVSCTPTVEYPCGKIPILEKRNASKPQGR
T1 chain 2: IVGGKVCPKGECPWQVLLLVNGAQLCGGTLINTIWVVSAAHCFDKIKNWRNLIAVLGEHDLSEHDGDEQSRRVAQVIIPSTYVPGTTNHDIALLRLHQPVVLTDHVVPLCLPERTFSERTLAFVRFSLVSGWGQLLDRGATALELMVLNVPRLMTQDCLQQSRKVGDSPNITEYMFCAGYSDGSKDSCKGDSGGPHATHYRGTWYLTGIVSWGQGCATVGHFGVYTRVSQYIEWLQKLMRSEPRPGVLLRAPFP
The experiment in a line: FX activation inhibition kinetics (Lineweaver-Burk secondary plot).

Experiment [2] has as its target intrinsic tenase complex (FIXa/FVIIIa) (Homo sapiens, UniProt P00740). The experiment is described as above.
Experiment [3] addresses T2, FVIIa/TF extrinsic tenase complex [E] (Homo sapiens, UniProt P08709).
T2 chain 1: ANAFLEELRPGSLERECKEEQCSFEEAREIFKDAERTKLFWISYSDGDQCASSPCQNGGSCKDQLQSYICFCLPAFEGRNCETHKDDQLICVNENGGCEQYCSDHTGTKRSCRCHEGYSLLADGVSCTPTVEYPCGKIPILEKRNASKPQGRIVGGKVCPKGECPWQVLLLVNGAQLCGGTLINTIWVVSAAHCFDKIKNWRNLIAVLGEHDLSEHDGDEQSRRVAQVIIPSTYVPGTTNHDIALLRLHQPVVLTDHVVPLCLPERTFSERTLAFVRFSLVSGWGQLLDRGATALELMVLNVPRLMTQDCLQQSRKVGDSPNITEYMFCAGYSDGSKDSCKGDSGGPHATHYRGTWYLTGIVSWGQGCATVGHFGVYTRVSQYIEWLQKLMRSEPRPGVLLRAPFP
T2 chain 2: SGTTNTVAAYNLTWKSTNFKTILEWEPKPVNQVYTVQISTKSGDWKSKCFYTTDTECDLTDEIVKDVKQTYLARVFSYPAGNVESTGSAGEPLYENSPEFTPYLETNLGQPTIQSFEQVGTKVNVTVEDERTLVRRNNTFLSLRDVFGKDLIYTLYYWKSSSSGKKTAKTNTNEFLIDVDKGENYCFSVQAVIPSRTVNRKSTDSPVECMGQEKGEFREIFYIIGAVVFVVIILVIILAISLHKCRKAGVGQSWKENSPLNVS
The description is as above.

The target of experiment [4] is FVIIa/FX complex [ES] (Homo sapiens, UniProt P08709). Briefly: FX activation inhibition kinetics (Lineweaver-Burk secondary plot, Ki').
Experiment [5] deals with FVIIa/TF/FX extrinsic tenase complex [ES] (Homo sapiens, UniProt P08709). Described as above.
In experiment [6] the target is T2, FVIIa/TF extrinsic tenase complex [E]. Briefly: FIX activation inhibition kinetics (Lineweaver-Burk secondary plot).
For experiment [7], the target named is FVIIa/TF/FIX complex [ES] (Homo sapiens, UniProt P08709). The experiment in a line: FIX activation inhibition kinetics (Lineweaver-Burk secondary plot, Ki').
For experiment [8], the target named is T3, FVIIa/sTF complex [E] (Homo sapiens, UniProt P08709).
T3 chain 1: T2 chain 1
T3 chain 2: T2 chain 2
The experiment in a line: FX activation inhibition kinetics (Lineweaver-Burk secondary plot).

Experiment [9] addresses FVIIa/sTF/FX complex [ES] (Homo sapiens, UniProt P08709). Briefly: FX activation inhibition kinetics (Lineweaver-Burk secondary plot, Ki').

Chain of intrinsic tenase complex (FIXa/FVIIIa) (P00740 47-461, chain 1 of 2): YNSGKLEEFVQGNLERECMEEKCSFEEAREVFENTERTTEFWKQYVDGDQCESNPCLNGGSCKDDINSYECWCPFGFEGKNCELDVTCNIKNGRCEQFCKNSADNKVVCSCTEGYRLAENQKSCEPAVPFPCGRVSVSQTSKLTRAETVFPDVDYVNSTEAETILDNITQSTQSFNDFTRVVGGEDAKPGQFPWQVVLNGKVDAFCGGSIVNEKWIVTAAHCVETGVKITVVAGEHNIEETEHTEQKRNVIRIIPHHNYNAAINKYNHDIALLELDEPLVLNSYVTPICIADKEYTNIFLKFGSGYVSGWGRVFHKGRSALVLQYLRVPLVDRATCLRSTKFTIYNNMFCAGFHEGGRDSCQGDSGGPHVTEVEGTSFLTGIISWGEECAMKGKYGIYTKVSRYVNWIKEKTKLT
Chain of intrinsic tenase complex (FIXa/FVIIIa) (P00451 20-2351, chain 2 of 2, further chain): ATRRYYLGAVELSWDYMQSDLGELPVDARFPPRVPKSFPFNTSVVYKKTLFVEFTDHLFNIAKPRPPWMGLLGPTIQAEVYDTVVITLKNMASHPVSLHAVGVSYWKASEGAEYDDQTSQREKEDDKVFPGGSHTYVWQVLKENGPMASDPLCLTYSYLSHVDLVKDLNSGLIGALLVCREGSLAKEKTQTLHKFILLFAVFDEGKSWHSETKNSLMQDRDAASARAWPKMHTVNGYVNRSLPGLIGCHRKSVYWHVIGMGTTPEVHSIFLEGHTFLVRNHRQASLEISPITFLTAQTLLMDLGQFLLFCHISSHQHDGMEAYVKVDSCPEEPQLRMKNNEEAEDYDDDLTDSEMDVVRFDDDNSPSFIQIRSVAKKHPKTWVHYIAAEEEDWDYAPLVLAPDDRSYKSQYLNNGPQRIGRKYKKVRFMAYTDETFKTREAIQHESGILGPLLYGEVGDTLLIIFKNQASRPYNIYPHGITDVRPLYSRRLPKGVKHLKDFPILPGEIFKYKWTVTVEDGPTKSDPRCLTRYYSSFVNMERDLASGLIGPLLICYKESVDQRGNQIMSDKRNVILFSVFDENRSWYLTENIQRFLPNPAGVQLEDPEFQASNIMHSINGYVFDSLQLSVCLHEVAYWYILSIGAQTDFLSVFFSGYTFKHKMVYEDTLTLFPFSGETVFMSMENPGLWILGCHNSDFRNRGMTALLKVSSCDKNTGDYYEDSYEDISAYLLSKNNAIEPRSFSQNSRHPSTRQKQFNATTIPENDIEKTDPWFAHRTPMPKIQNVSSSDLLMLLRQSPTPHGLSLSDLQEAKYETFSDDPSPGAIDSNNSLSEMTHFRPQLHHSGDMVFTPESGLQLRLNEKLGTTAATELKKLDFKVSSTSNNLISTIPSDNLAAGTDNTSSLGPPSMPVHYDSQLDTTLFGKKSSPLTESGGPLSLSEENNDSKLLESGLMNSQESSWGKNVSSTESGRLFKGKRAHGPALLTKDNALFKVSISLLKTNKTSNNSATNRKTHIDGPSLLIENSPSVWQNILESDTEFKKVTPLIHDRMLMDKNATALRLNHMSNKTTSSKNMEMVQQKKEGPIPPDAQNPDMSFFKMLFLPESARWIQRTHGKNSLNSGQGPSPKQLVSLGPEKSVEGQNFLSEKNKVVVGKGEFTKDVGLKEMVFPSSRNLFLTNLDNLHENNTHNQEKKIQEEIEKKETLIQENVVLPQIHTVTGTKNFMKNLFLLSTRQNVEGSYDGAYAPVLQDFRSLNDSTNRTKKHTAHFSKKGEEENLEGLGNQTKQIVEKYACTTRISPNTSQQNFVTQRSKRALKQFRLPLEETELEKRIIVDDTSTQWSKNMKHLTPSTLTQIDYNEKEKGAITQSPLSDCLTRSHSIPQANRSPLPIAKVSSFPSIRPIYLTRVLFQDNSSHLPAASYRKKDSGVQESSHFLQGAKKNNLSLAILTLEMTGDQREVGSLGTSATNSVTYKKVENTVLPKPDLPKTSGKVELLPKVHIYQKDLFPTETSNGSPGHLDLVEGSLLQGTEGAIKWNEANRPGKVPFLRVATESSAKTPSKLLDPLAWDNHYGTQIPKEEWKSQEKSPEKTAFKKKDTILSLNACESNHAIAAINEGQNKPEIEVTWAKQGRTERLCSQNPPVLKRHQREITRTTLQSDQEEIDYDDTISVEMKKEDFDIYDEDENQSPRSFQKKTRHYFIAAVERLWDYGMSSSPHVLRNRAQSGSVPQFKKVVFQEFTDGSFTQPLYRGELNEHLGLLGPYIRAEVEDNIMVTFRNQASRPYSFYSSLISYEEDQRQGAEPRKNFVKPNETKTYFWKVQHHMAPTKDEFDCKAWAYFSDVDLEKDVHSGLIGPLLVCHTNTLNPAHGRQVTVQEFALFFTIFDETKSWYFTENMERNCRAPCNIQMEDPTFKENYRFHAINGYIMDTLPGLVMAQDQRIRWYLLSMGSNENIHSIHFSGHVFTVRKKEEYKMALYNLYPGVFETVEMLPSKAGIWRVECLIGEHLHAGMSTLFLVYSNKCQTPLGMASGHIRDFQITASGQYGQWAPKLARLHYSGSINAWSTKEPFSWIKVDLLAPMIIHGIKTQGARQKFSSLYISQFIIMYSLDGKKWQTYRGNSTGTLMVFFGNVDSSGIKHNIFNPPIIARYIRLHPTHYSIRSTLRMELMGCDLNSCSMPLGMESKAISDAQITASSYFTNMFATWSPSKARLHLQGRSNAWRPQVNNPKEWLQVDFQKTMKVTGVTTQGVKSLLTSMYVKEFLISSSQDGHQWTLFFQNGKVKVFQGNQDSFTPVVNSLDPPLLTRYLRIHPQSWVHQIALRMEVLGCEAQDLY

B1: exactin (protein)
chain: LECYQKSKVVTCQPEQKFCYSDTTMFFPNHPVYLSGCTFSCTEEGNRRCCTTDKCNR
modifications: disulfide (positions not given here); also: four disulfide bonds, pairing not given here
As a reminder, the Ki is the dissociation constant of the complex between target and ligand, obtained from inhibition or displacement. A low value points to higher affinity. Regarding B1, the Ki in experiment [1] amounted to 0.184 µM; in experiment [2] it was 1.67 µM; in [3] it was 0.154 µM; in experiment [4], 0.103 µM; in experiment [5], 0.0306 µM; in experiment [6], 129 µM. In [7], this molecule registered a Ki of 38.7 µM.

B2: exactin (protein)
chain: B1 chain
Regarding B2, the results for the Ki in experiment [8] and in experiment [9] were 1250 µM and 295 µM, respectively.
